Columns and labels:
Details in all cases: remark: other sources report otherwise
[1] = target: recombinant soluble homotrimeric HA, A/duck/Yangzhou/02/2005 (H8N4) (influenza A virus A/duck/Yangzhou/02/2005 (H8N4)); test: microarray, trimeric HA, transfection supernatant
[2] = target: recombinant soluble homotrimeric HA, A/Hong Kong/156/97 (H5N1) (influenza A virus A/Hong Kong/156/97 (H5N1)); test: microarray, trimeric HA, transfection supernatant
[3] = target: recombinant soluble homotrimeric HA, A/chicken/Vietnam/NCVD-016/08 (H5N1) (influenza A virus A/chicken/Vietnam/NCVD-016/2008 (H5N1)); test: microarray, trimeric HA, transfection supernatant
[4] = target: recombinant soluble homotrimeric HA of A/Wisconsin/67/05 (H3N2) (Influenza A virus A/Wisconsin/67/2005 (H3N2)); test: HA microarray, BCC supernatant
[5] = target: recombinant soluble homotrimeric HA of A/California/4/09 (H1N1) (Influenza A virus A/California/04/2009 (H1N1)); test: HA microarray, BCC supernatant
[6] = target: recombinant soluble homotrimeric HA of A/chicken/Vietnam/NCVD-016/08 (H5N1) (Influenza A virus A/chicken/Vietnam/NCVD-016/2008 (H5N1)); test: HA microarray, BCC supernatant
[7] = target: recombinant soluble homotrimeric HA of A/Egypt/3300-NAMRU3/08 (H5N1) (Influenza A virus A/Egypt/3300-NAMRU3/2008 (H5N1)); test: HA microarray, BCC supernatant
[8] = target: recombinant soluble homotrimeric HA of A/swine/Ontario/01911-2/99 (H4N6) (Influenza A virus A/Swine/Ontario/01911-2/99 (H4N6)); test: HA microarray, BCC supernatant
[9] = target: recombinant soluble homotrimeric HA of A/Japan/305/57 (H2N2) (Influenza A virus A/Japan/305/1957 (H2N2)); test: HA microarray, BCC supernatant
[10] = target: recombinant soluble homotrimeric HA of A/Indonesia/5/05 (H5N1) (Influenza A virus A/Indonesia/5/2005 (H5N1)); test: HA microarray, BCC supernatant
[11] = target: recombinant soluble homotrimeric HA of A/duck/Yangzhou/02/2005 (H8N4) (Influenza A virus A/duck/Yangzhou/02/2005 (H8N4)); test: HA microarray, BCC supernatant
[12] = target: recombinant soluble homotrimeric HA of A/northern shoveler/California/HKWF115/2007 (H6N1) (Influenza A virus A/northern shoveler/California/HKWF115/2007 (H6N1)); test: HA microarray, BCC supernatant
[13] = target: recombinant soluble homotrimeric HA of A/Solomon Islands/3/06 (H1N1) (Influenza A virus A/Solomon Islands/3/2006 (H1N1)); test: HA microarray, BCC supernatant
[14] = target: recombinant soluble homotrimeric HA of A/Vietnam/1203/04 (H5N1) (Influenza A virus A/Vietnam/1203/2004 (H5N1)); test: HA microarray, BCC supernatant
[15] = target: recombinant soluble homotrimeric HA of A/Netherlands/219/03 (H7N7) (Influenza A virus A/Netherlands/219/03 (H7N7)); test: HA microarray, BCC supernatant
[16] = target: recombinant soluble homotrimeric HA of A/Anhui/1/05 (H5N1) (Influenza A virus A/Anhui/1/2005 (H5N1)); test: HA microarray, BCC supernatant
[17] = target: recombinant soluble homotrimeric HA, A/northern shoveler/California/HKWF115/2007 (H6N1) (influenza A virus A/northern shoveler/California/HKWF115/2007 (H6N1)); test: microarray, trimeric HA, transfection supernatant

B1: TCN-537 (3194_D21) (antibody, V domains shown)
VH: QVQLQQWGSGLLKPSETLSLTCAVYGGSFRDDYWTWIRQPPGKGLEWIGEINHSGRTNYNPSLKSRVTISVDTSLKQFSLKVISVTAADTAVYYCARGTSHVSRYFDWLPPTNWFDPWGQGTQVTVSS
VL: DIVLTQSPGTLSLSPGERATLSCRASQSVSSSYLAWYQQKPGQAPRLVMYGAATRATGIPDRFSGSGSGPDFTLTISRLEPEDFAMYYCQQYGNSPITFGQGTRLEIK
[1]
  Trimeric HA Binding RLU: 25500 RLU
[2]
  Trimeric HA Binding RLU: 10700 RLU
[3]
  Trimeric HA Binding RLU: 4480 RLU
[4]
  Trimeric HA Binding RLU: 549 RLU
[5]
  Trimeric HA Binding RLU: 21900 RLU
[6]
  Trimeric HA Binding RLU: 8620 RLU
[7]
  Trimeric HA Binding RLU: 38200 RLU
[8]
  Trimeric HA Binding RLU: 19 RLU
[9]
  Trimeric HA Binding RLU: 44700 RLU
[10]
  Trimeric HA Binding RLU: 14900 RLU
[11]
  Trimeric HA Binding RLU: 7830 RLU
[12]
  Trimeric HA Binding RLU: 5210 RLU

B2: TCN-563 (5237_B21) (antibody, V domains shown)
VH: QVQLAQSGAEVKRPGSSVKVSCTASGGIFRKNAISWVRQAPGQGLEWMGGIIAVFNTANYAQKFQGRVKITADESGNTAYMELSSLRSDDTAVYYCASHPKYFYGSGSYPDFWGQGTLVTVSS
VL: QSALTQPRSVSGSPGQSVTISCTGSSSDVGASNSVSWYQQHPGKAPKLVIYDVTERPSGVPHRFSGSKSGNTASLTVSGLQPEDEADYFCCAYGGKYLVVFGGGTKVTVL
[13]
  Trimeric HA Binding RLU: 30000 RLU
[4]
  Trimeric HA Binding RLU: 40800 RLU
[14]
  Trimeric HA Binding RLU: 4840 RLU
[15]
  Trimeric HA Binding RLU: 7520 RLU
[5]
  Trimeric HA Binding RLU: 45200 RLU
[6]
  Trimeric HA Binding RLU: 41000 RLU
[7]
  Trimeric HA Binding RLU: 27500 RLU
[8]
  Trimeric HA Binding RLU: 4500 RLU
[9]
  Trimeric HA Binding RLU: 6610 RLU
[10]
  Trimeric HA Binding RLU: 39500 RLU
[16]
  Trimeric HA Binding RLU: 9580 RLU
[11]
  Trimeric HA Binding RLU: 46700 RLU
[12]
  Trimeric HA Binding RLU: 27300 RLU

B3: TCN-544 (5082_A19) (antibody, V domains shown)
VH: QVQLQESGPGLVKPSETLSLTCTVSRGSIGHYFWSWIRQPPGKGLEWIGYISYSGSTKYNPSLRSRVTISVDTSKNQFSLNLNSVTATDTALYYCAREDYDILTGAGPGMEVWGQGTTVTVSS
VL: QSMLTQPPSASGTPGQRVTISCSGSSSNIGSNTVNWFKHLPGTAPKLLIYRNDLRPSGVPDRFSGSKSGTSASLAISGLQSEDEADYYCATWDDSLNGFYVFGTGTKVTVL
[1]
  Trimeric HA Binding RLU: 9440 RLU
[3]
  Trimeric HA Binding RLU: 3070 RLU
[13]
  Trimeric HA Binding RLU: 179 RLU
[5]
  Trimeric HA Binding RLU: 281 RLU
[6]
  Trimeric HA Binding RLU: 272 RLU
[9]
  Trimeric HA Binding RLU: 187 RLU

B4: TCN-530 (5248_H10a) (antibody, V domains shown)
VH: QVQLVQSGAEVRKPGSSVKVSCKASGGPFMSYAIGWVRQAPGQGLEWMGGINPVFGRPHYAQKFQGRVTIATDDSTKTSYMELSSLTSEDTGMYYCASRYSRSSPGTFESWGQGTLVTVSS
VL: EIVMTQFPATLSVSPGERVTLSCRASQSVSNNLAWYQQKPGQPPRLLIYDASTRATGVPAKFSGTGSGTEFTLSISSLQSEDFAVYYCQQYHNWPPSYSFGLGTKLEIK
[13]
  Trimeric HA Binding RLU: 32800 RLU
[4]
  Trimeric HA Binding RLU: 36800 RLU
[14]
  Trimeric HA Binding RLU: 7150 RLU
[5]
  Trimeric HA Binding RLU: 46600 RLU
[6]
  Trimeric HA Binding RLU: 48300 RLU
[7]
  Trimeric HA Binding RLU: 30400 RLU
[9]
  Trimeric HA Binding RLU: 47000 RLU
[10]
  Trimeric HA Binding RLU: 39800 RLU
[16]
  Trimeric HA Binding RLU: 11900 RLU
[12]
  Trimeric HA Binding RLU: 45300 RLU

B5: TCN-548 (5092_P01) (antibody, V domains shown)
VH: QVQLQESGPGLVKPSETLSLTCTVSSGPMSDYYWSWIRQPPGKGLEWIGHVSVSHGGRTKSNPSVMSRVTISVETSKNQFSLKLTSVTAADTAVYYCARLNYYDRSGYHSPDGPSNNWFDPWGQGTLVTVSS
VL: not shown
[1]
  Trimeric HA Binding RLU: 5740 RLU
[17]
  Trimeric HA Binding RLU: 2100 RLU
[3]
  Trimeric HA Binding RLU: 1060 RLU
[13]
  Trimeric HA Binding RLU: 283 RLU
[5]
  Trimeric HA Binding RLU: 234 RLU
[6]
  Trimeric HA Binding RLU: 254 RLU
[9]
  Trimeric HA Binding RLU: 416 RLU
[11]
  Trimeric HA Binding RLU: 184 RLU
[12]
  Trimeric HA Binding RLU: 314 RLU

Reference: US20150104459A1
